# According to the nanobody polyreactivity screen of Harvey et al. (2022):
# Assay: yeast display, Sf9 membrane polyspecificity reagent, FACS + sequencing; frameworks hold sequencing errors
# Outline: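 A synthetic nanobody library was expressed on Saccharomyces cerevisiae BJ5465 by galactose induction for 36–48 hours. The library was stained for 1 hour at 4 °C with 10% biotinylated, detergent-solubilized Sf9 membrane reagent and enriched with streptavidin microbeads before FACS. Low and high (top ~1%) gates were set on anti-HA fluorescence for expression and streptavidin fluorescence for reagent binding, and each polyreactivity label reflects the gate of origin.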
row,Sequence,polyreactivity (PSR sort gate)
1,PVQLVESGGGLVQAGGSLRLSCAASGSIFFGYAMGWYRQAPGKERELVAAFNGSVITSYADSVKGRFTISRDNAKNPVYVQMNSLKPEDTAYYCNTGSTWGAVIANYDHWGQGTQVTVSS,low polyreactivity
2,QVQLVESGGGLVQAGGSLRLSCAASGSIFPWYAMGWYRQAPWKERELVAGISSGGGTNYADSVKGRFTISRDNAKNTVYLQMNSMKPEDTAVYYCNADYFGGGDYWGQGTQVTVSS,low polyreactivity
3,QVQLVESGGGLVQAGGSLRLSSAASGSILTPNAMGWYRQAPGKERELVAAINYSGGSTYYADSVKGRFTISRDTAKNTVYLQMNSLKPEDTAVYYCAVPYWYGRGHCYWGQGTQVTVSS,low polyreactivity
4,QVQLVESGGGLVQAGGSLRLSCAASGYIFDRYAMGWYRPAPGKERELVAAISVGGGTTYYADSVKGRFTISRDNAKNTVYLQMNSLKPEDTAVYYCAARSDSYAPRRGYWGQGTQVTVSS,high polyreactivity
5,QVQLVDSGGGLVQAGGSLRLSCAASGSIFSYYAMGWYRPAPGTERELVAGLSWGGGRTYYADSVKGRFTISRDNAKNTVYLQMNSLKQEDTAVYYCAARLTGLDYWGQGTQVTVSS,high polyreactivity
6,QVQLVESAGGLVQAGGSLRLSCAASGRIFVRYAKGRYREAPGKVRELVAAISSSGSSTYYADSVKRRFTISRDNASNTVYLQMNSLKPEDTAVYYCNAVPSVRWRYDYWGQGTQVTVSS,high polyreactivity
7,QVQLGESGGGLVQAGGSLRLSCAASGRIFPWNTMGWYRQAPGKERELVAGITSGGSTNYADSVKGRFTISRDNAKNTVYLLMNCLKPEATAVYYCAARGYYWYISGVYEYEYWGQGTQVTLSS,low polyreactivity
8,QVQHVESGGGLVQAGGSLRLSCAASGLTLYGYTMGWYRQAPGKERELVPTITTGGDSTYYADSVKGRFTISRDNAKNTVYLQMTSLKPEDTAVYYCSAFSYGWDYSYDYWGQGTQVTVSS,low polyreactivity
9,QVQHVESGGGLVQAGGSLRLSCAASGFIFTHYTMGWSRQAPGKESELVAVISSAGSTYYADSVKGRFTISRDNAKNTVYLQMNSLKPEDTAVYYCNKVVRQVHGRGLDYWGQGTQVTVSS,high polyreactivity
10,QVQLVESGGGLVQAGGSLRLSCAASGIIFQYYAMGGYRQAPGKERELVAAISWSGGSTYYADSVKGRFTISRDNAKNTVYLQMNSLKPEDTAVYYCAARSRSFWPYEGDYWGQGTQVTVSS,low polyreactivity
11,QVQLVESGGGLVQAGGSLRLSCAASGRTFDDYPMGWYRQAPGKDSELVAAITRRGGSTYYADSVKGRFTISRDNAKNTVYLQMNSLNPEDTAVYYCAADLFFKARGYDYWGQGTQVTVST,high polyreactivity
12,QVQLVESGGGLVQAGGSLRLSCAASGSTFTLYAMGWYRQAPGKERELVAAISWSTTSTYYADSVKGRFTISRDNAKNTVYLQMNSLKPEDTAVYYCAAELYRAEYDYWGQGTQVTVSS,high polyreactivity
13,QVQLVESGGGLVQAGGSLRLSCAASGSIFTWYAMGWYRQAPGKEREFVDSITGSGGSTYYADSVKGRFTISRDNAKNTVYLQMNSLKPEDTAVYYCAKGHVYSSYRYRLRSTAFGYWGQGTQVTVSS,high polyreactivity
14,QVQLVESGGALVQAGGSLRLSCAASGNTFIPNAMGWYRQAPGKERELVAAIRASGGSTYYADSVKGRFTISRDNAKNTVYLQMNSLKPEDTAVYYCNADIWYKTYDYWGQGTQVTVSS,low polyreactivity
15,QVQLVESGGGLVQAGGSLRLSCAASGSTFPPNAMGWYRPAPGKERELVAVISNGGSNTRYADSVKGRFTISRDNAKNTVYLQMNSLKPEDTAVYYCAADYEYSGYGYWGQGTQVTVSS,high polyreactivity
16,QVQLVESGGGLVQAGGSHRLSCAASGSIFRSYAMGWYRQAPGKERELVASISRRGGSTYYADSVKGRFTISRDNAKNTVYLQMNSLIPEDTAVYYCAAVRYNSRVSTTPSEMYYWGQGTQVTVSS,low polyreactivity
17,QDQLVESGGGLVQAGGSLRLSCAASGLIFLYPMGGYRQAPGKERELVAAISNGGSTYYADSVKGRFTISRDNAKNTVYLQMNSLKPEDTAVYFCAAKGVRRRYRPDMYYWGQGTQVTVSS,high polyreactivity
18,QVQLVESGGGIVQAGGRLRLSCAASGYIFDIYAMGWNRQAPGKERELDADITRSGGGTYYADSVKGRFTISRDNAKNTVYLQMNSLKPEDTAVYYCAAESYVYGGSDYDYWGQGTQVTVSS,low polyreactivity
19,QVQLVESGRGLVQAGGSLRLSCAASGSTFPPSAMGWYRQAPGKERELVAAIDVSGGTTFYADSVKGRFTISRDNAKNTVYLQMNSLKPEDTAVYYCAIGSVSARFEYWGQGTQVTVSS,low polyreactivity
20,QVHLVESGGGLVQAGGSLRLSCAASGSTSDNTMGWYRQAPGKERELVAAISQRGVSTYYADSVKGRFTISRDNAKNTVYLQMNSLKPEDTAVYYCNALLSAKFDYWGQGTQVTVSS,low polyreactivity
21,QVQLVESGGGLVQAGGSLRLSCAASGRTFGGYAMGRYRQAPGKDRQLVASISWSGGSTYYADSVKGRFTISRDNAKNTVYLQMNSLKPEDTAVYYCAARPYLSRSTRMDYWGQGTQVTVSS,low polyreactivity
22,QVQLQESCGGLVQEAGSLRLSCAASGNISPPADMGWYRQAPGKQRELVASIGTGGTTNYADSEKGRFTISRDNAKNTVYLQMNSLKPEDSAVYYCNVDIGVYAYESDYWGQGTQVTVSS,low polyreactivity

row,Sequence,polyreactivity (PSR sort gate)
1,QVQLVESGGGLVQAGGSLRLSCAASGNIFANAMGWYRQAPGKERELVAAISRSGGSTYYADSVKGRFTISRDNAKNTVYLQMNSLKPEDTAVYYCAARTTRGPTFGYWGQGTQVTVSS,high polyreactivity
2,QVQLVESGGGLVQAGGSLRLTCAASGRTFTIYAMGWYRQAPGKERELVAAISSSSGSTYYADSVKGRFPISRDNAKNTVYLQKNSLKPEDTAVYYCAVKLSGQAAQRRYDYWGQGTQVTVSS,high polyreactivity
3,QVQLVESGGGLVQAGGSLRLSCAASGSIFAKNAMGWYRQAPGKERELVAAISSSGGRTYYADSVKGRFTISRDNAKNTVYLQMNSLKPEDTAVYYCAADLRYIYWSYYYWGQGTQVTVSS,low polyreactivity
4,QVQLQESGGRLVQSGGSLRPSCAASGSISDGVPMGWNSQAPGDERELVATTVLGATTNNADSVKGRFTISRGNAKNTVYLQMNSLKPEETAVYYCAAPLRYDKGFSYWGQGTQVTVSS,low polyreactivity
5,QVQLVESGGGLVQAGGSLRLSCAASGRTFFINAMGWYRPAPGKERELVAAIRVGAGSTYYADSVKGRVTISRDNAKYTVYLQMNSLKPEDTAVYYCAKRTATSTRKYDYWGQGTQVTVSS,high polyreactivity
6,QVQLVESGGGLVQAGGSLRLSCAASGSIFDIYAMAWYRQAPGKERELVADITSGGRTDYADSVKGRFTISRDNGKNTVYLQMNSLKPEDTAVYYCAADYIWDSVYWYISSYDYWGQGTKVTVSS,low polyreactivity
7,QVQLVESGGGLVQAGGSLRLSCSASGLTLKRYAMGWYRQAPGQERELVAAISKSGGSTYYADSVKGRFTISRDNAKNTVYLQMNSLKPEDTAVYYCAADSYNLWDDYWGQGTQVTVSS,low polyreactivity
8,QVQLVESGGGLVQAGGSLRLSCAASGSTFYRYAMGWYRQAPGKERELVAAISSSGGSTYYADSVKGRFTISRDNAKNTVYLQMNSLKPEDTAVYYCNAAYRVRRFDYWGQGTQVTVSS,low polyreactivity
9,QVQLQECGGGLVQAGGSLRLSCAASVNIFDADIMGWYRQAPGKERELVASVTDGGSTNYADSVKGRFTISRDNAKNTVYLQMNSLKPEDTAVYYCAAIVYPDILTYFEYDYDYFYWGQGTQVTVGS,low polyreactivity
10,QVQIVESGGGLVQAGGSLRLSCAASGSIFRSYAMGWYRQAPGKERELVAAITSSSGSTYYADSVKGRFTISRDNAKNTVYLQMNSLKPEDTAVYSCAAGSPRRYRYDYWGQGTQVTVSS,high polyreactivity
11,QVQLVESGGGLVQAGGSLRLSCAASGSIVYRYAMGWYRPAPGKERELVAAISYSGGSTYYADSVKGRFTISRDNAKNTVYLQMNSLKPEDTAVYYCAKDYPPPISDYSRYYGYGYWGQGTQVTVSS,low polyreactivity
12,QVQLVESGGGLVQAGGSLRLSCAASGFIFGYYAMGWYRQAPGKERELVAAISSRGGSTYYADSVKGRFTISRDNAKNTVYLQMNSLKPEDTAVYYCAVRRVSFRHKFGQYDYWGQGTQVTVSS,high polyreactivity
13,QVQLVESGGGLVQAGGTLRLSCAASGFTFSINAMGWSRQAPGKERELVAGISWSGGITYYADSVKGRFTISRDNAKNTVYLQMNSLKPEDTAVYYCNTDYGLTTPVVWDDYWGQGTQVTVSS,low polyreactivity
14,QVQLVESGGGLVQAGGSLRLSCAASGSIFLGYAMGWYRQAPGKERELVAAITSGGSTNYADSVKGRFTISRDNAKNTVYLQMNSLKPEDTAVYYCAAKGEWSLVYTDYDYWGQGTQVTVSS,low polyreactivity
15,QVQLQESGGGQVHAGGSLRLSCAASGTIFLYAYMGWYRQAPGKERELVAAIDVGTTTNYADSVKGRFTISRDNAKNTVYLQMNSLKPEDTAVYYCAANLGYLDDLGYWGQGTQETVSS,low polyreactivity
16,QVQLVESGGGLVQAGVILRLSCAASGSTIGVNAMGWYRQPPAKERELVAAISLGGGRTYYADSVKGRFTISRDNAKNTVNLQMNCLKPEDTAVYYCNTDFGARMGYWGQGTQVTVSS,high polyreactivity
17,QVQLVESGGGLVQAGGSLRLSCAASGRTFGTYAMGWYIQAPGKERELVAAIRSNAGSTYYADSVKGRFTISRDNAKNTVYLQMNSLKPEDNAVYYCAKSYRCSRRYNYWGQGTQVTVSS,high polyreactivity
18,QVQLVESGGGLVQAGGSLRLSCAASGFIFRQYAMGWYRQAPGKEMELVAAISSSGGRTYYADSVKGRFTISRDNAKNTVYLQMNSLKPEDTAVSYCNARAWLRVEYGEGYWGQGTQVTVSS,high polyreactivity
19,QVQLVESGGGLVQAGGSLRLSCAASGFTFGSYAMGWYRQATGKERELVAVITRSGRTNYADSVKGRFTITRDNAKNTVFLQMNSMKPEDTAVYYCNADDVDDEVSPDLTEMDNWGLGTQVTVSS,low polyreactivity
20,QVQLVESGGGLVQAGGSLRLSCAASGSIFFFNAMGWYRQAPGKERELVAAISESGTSTYYADSVKGRFTISRDNAKNTVYLQMNSLKPEDAAVYYCNVVFRYAYGVYYTPEFYYWGQGTQVTVSS,low polyreactivity
21,QVQLVETGGGLVQAGGSLRLSCAASGITFWYYAMGCDRQAPGKERELVAVISRGGSTYYADSVKGRFTISRDNAKNTVYLQMNSLKPEDTAVYYCAARPRWYTYNRQEYDYWGQGTQVTLSS,high polyreactivity
